Measurements reported in paper PMC5383425, “Differential CLE peptide perception by plant receptors implicated from structural and functional analyses of TDIF-TDR interactions” (PLoS ONE, 2017).
Square brackets hold non-standard residues; d marks the D form. Ends that are not written are not given here. Hyp = O=C(O)[C@@H]1C[C@@H](O)CN1

What was measured:
Experiment in all cases: ITC; 0.5–1 mM peptide titrated into 10–40 μM ecdTDR; 25°C; 10 mM sodium citrate, 100 mM NaCl, pH 5.5; fitted to one set of binding sites; MicroCal Auto-iTC200
Settings in all cases: both partners purified
[1] = target: T1, ecdTDR F161A mutant (Arabidopsis thaliana, UniProt Q9FII5 30-642, F161A)
T1 construct: TDR/PXY of A. thaliana, extracellular domain, residues 30-642; source: High Five insect cells (baculovirus), secreted, purified as the wild type (Ni-NTA, size-exclusion chromatography)
T1 sequence (looked up): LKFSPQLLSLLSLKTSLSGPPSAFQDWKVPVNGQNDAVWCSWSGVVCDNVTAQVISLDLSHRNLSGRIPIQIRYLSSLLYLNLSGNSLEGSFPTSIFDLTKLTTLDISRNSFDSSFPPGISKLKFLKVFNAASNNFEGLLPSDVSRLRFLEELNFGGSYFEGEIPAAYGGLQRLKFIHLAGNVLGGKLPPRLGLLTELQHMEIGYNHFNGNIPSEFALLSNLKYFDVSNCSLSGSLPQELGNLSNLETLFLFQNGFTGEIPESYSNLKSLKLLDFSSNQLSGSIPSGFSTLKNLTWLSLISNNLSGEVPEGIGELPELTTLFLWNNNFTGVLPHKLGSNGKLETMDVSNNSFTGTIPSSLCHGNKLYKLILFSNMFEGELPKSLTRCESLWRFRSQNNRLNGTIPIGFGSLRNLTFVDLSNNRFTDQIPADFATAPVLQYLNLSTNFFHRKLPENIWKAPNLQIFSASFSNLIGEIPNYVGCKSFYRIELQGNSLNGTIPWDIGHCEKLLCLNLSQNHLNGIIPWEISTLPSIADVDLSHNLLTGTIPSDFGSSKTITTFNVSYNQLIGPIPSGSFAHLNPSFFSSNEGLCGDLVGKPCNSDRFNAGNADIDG

[2] = target: T2, ecdTDR F281 alanine mutant (Arabidopsis thaliana, UniProt Q9FII5 30-642, alanine substitution of F281)
T2 construct: TDR/PXY of A. thaliana, extracellular domain, residues 30-642; The text says only 'mutational analyses' of F281; source: High Five insect cells (baculovirus), secreted, purified as the wild type (Ni-NTA, size-exclusion chromatography)
T2 sequence (looked up): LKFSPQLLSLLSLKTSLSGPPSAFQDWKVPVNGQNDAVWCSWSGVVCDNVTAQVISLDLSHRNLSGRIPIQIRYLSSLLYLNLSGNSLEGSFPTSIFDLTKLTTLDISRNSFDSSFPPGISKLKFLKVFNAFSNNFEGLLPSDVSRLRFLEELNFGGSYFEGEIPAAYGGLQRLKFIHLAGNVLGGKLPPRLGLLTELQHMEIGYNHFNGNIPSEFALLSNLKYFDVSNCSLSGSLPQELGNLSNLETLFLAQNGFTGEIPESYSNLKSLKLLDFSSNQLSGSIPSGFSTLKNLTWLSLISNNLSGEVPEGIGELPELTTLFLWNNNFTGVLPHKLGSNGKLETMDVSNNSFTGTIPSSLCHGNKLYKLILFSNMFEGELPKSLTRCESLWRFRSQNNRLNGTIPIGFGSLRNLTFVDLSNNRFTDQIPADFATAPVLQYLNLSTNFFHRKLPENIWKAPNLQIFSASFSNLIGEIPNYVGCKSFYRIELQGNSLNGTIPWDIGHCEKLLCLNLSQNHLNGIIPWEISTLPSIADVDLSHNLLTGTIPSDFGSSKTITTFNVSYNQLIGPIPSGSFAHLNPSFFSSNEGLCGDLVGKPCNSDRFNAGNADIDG

[3] = target: T3, ecdTDR F279 alanine mutant (Arabidopsis thaliana, UniProt Q9FII5 30-642, alanine substitution of F279)
T3 construct: TDR/PXY of A. thaliana, extracellular domain, residues 30-642; The text says only 'mutational analyses' of F279; source: High Five insect cells (baculovirus), secreted, purified as the wild type (Ni-NTA, size-exclusion chromatography)
T3 sequence (looked up): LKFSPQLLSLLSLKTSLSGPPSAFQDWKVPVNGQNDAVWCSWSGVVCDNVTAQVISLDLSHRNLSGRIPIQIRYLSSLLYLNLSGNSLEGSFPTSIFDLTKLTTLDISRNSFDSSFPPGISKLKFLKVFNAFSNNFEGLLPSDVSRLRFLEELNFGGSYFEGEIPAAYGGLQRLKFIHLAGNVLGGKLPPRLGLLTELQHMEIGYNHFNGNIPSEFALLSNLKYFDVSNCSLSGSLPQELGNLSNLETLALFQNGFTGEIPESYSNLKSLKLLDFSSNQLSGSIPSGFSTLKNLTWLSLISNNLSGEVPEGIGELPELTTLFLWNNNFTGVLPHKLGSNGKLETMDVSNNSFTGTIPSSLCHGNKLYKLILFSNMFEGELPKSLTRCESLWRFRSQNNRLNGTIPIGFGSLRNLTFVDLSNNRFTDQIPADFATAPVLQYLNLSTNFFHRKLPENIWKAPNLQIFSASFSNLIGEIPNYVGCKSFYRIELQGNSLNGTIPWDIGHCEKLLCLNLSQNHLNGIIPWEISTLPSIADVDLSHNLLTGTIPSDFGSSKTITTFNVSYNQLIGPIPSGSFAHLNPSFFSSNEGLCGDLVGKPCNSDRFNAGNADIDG

Measured: binding result

B1: Tracheary Element Differentiation Inhibitory Factor (TDIF) peptide (peptide)
peptide: HEV[Hyp]SG[Hyp]NPISN
notes: TDIF, the 12-residue CLE peptide processed from CLE41 and CLE44 of A. thaliana; printed as HEV(Hyp)SG(Hyp)NPISN; numbers count on: the 12-residue peptide; CLE44 encodes the same peptide; also called wild type TDIF; wtTDIF; source: synthetic peptide (peptide 2.0)
binds: [1] | [2] | [3]
